In experiment [1] the target is T1, murine B7-H3 antigen (R&D cat# 1397-B3-050/CF) (murine, UniProt Q8VE98 29-244).
T1 construct: Commercial protein; also called mouse B7-H3
T1 sequence: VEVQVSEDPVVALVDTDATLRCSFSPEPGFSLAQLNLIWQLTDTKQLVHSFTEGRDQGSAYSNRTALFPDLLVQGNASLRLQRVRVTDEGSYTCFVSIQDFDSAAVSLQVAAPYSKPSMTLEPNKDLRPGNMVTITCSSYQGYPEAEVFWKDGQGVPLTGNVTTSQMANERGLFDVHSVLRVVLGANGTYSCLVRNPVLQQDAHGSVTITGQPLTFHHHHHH
Briefly: SPR (Biacore T200), antibody captured on Protein A chip, antigen in flow, 1:1 Langmuir fit. An excerpt: A biosensor chip Protein A (Cat. # 29127556, GE) was used to affinity capture a certain amount of antibody to be tested. A series diluted of human 2Ig-B7-H3 antigen (Cat. #1949-B3-050/CF, R&D), human 4Ig-B7-H3 antigen (Cat. #11188-H08H, Sino Biological) or murine B7-H3 antigen (Cat. # 1397-B3-050/CF, R&D) was flowed through the surface of the chip. Real-time reaction signal was detected by using Biacore instrument (Biacore T200, GE), in order to obtain association and dissociation curves. After completion of each cycle of dissociation, the biochip was washed and regenerated with glycine-hydrochloric acid regeneration solution (pH 1.5) (Cat.#BR-1003-54, GE). The buffer used in the experiment was HBS-EP buffer solution (pH 7.4) (Cat. # BR-1001-88, GE).
The experimental data was fitted with BIA evaluation version 4.1 GE software in a (1:1) Langmuir model to obtain affinity values.

In experiment [2] the target is B7-H3 on U87MG tumor cells (human) (UniProt Q5ZPR3). Put plainly: flow cytometry on U87MG cells, APC anti-human IgG Fc detection, geometric mean fluorescence.
Sequence of B7-H3 on U87MG tumor cells (human) (Q5ZPR3 29-534): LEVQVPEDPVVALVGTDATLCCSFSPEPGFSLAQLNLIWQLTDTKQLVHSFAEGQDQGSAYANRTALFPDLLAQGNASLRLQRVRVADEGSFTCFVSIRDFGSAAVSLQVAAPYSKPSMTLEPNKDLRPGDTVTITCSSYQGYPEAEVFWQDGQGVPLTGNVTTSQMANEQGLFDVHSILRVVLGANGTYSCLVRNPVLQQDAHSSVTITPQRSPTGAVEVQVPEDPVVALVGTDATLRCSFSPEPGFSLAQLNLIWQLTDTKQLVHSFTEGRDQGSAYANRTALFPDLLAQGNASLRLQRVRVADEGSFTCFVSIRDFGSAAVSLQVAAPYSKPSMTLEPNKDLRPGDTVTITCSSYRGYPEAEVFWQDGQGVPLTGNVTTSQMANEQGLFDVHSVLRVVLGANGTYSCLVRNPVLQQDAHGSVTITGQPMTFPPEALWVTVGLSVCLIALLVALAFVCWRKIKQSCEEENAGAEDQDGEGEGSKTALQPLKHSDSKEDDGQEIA

B1: h1703-IgG1 (antibody, V domains shown)
VH: QVQLQESGGGLVQPGGSLRLSCAASGFTFSSYAMSWVRQAPGKGLEWVSAISGSGGSTYYADSVKGRYTISRDNSKNTLYLQMNSLRAEDTAVYYCAKGVGPVHALDVWGQGTTVTVSS
VL: DIRLTQSPSSLSASVGDRVTITCRASQSISTYLNWYQQKPGKAPILLINAVSGLQSGVPSRFSGSGSGTHFTLTITSLQPEDFATYYCQQSYSTPMWTFGQGTKVEIKR
notes: Fully human IgG1 with kappa light chain, from an scFv phage library, expressed in HEK293E cells
Take B1: in experiment [1], the Kd was found to be 0.502 µM.

B2: h1702-IgG1 (antibody, V domains shown)
VH: QVQLVQSGGGVVQPGTSLRLSCAASGFIFSSSAMHWVRQAPGKGLEWVAVISYDGSNKYYVDSVKGRFTISRDNSKNTLYLQMNSLRAEDTAVYYCARSARLYASFDYWGQGALVTVSS
VL: QTVVTQEPSFSVSPGGTVTLTCGLSSGSVSTSHYPSWYQQTPGQAPRMLIYNTNTRSSGVPDRFSGSILGNKAALTITGAQADDESDYYCAIHVDRDIWVFGGGTKLTVLG
notes: Fully human IgG1 with lambda light chain, from an scFv phage library, expressed in HEK293E cells
In experiment [1], B2 registered a Kd of 1.47 µM. In addition, in experiment [2], the concentration giving a half-maximal response (EC50 (read off the curve)) came out at 0.002 µM.

The values above are taken from patent US20210101984A1 (JIANGSU HENGRUI MEDICINE, published 2021).
